# Test results as given in patent US20050203026A1 (DANISCO US, published 2005).
# No end group written: not given here.
# Legend:
# [1] = target: BSA (UniProt P02769 25-607); test: phage ELISA, detected with anti-M13-HRP and ABTS, A405 after 30 min, n=3
# [2] = target: T1, human VEGF165 (human, UniProt P15692-4 27-191); test: plate binding assay: hVEGF165-coated wells, bound beta-lactamase activity measured with nitrocefin (mOD/min)
# T1 construct: Bought recombinant protein; Coated on plates (ELISA), amine-coupled to a CM5 chip (SPR) or added to HUVE cells at 10 ng/mL; also called hVEGF165; vascular endothelial growth factor
# [3] = target: T1, human VEGF165; test: SPR (BIAcore 3000), VEGF165 coupled to CM5 chip, peptide injected; two state reaction model with conformation change
# [4] = target: T1, human VEGF165; test: surface plasmon resonance (BIAcore), hVEGF165 coupled to a CM5 chip, BBI-VEGF injected
# [5] = target: T1, human VEGF165; test: SPR (BIAcore 3000), 6000 RU VEGF on CM5 chip, TNF reference lane, peptide injected; two state reaction model with conformation change
# T1 sequence (P15692 other isoform, or with tags, fused parts or gaps limits assumed): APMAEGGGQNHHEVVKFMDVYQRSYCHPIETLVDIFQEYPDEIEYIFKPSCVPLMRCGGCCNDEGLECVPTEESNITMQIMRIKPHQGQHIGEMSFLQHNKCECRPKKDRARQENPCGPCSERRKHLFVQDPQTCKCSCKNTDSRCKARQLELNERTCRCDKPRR
# Sequence of BSA (P02769 25-607 limits assumed): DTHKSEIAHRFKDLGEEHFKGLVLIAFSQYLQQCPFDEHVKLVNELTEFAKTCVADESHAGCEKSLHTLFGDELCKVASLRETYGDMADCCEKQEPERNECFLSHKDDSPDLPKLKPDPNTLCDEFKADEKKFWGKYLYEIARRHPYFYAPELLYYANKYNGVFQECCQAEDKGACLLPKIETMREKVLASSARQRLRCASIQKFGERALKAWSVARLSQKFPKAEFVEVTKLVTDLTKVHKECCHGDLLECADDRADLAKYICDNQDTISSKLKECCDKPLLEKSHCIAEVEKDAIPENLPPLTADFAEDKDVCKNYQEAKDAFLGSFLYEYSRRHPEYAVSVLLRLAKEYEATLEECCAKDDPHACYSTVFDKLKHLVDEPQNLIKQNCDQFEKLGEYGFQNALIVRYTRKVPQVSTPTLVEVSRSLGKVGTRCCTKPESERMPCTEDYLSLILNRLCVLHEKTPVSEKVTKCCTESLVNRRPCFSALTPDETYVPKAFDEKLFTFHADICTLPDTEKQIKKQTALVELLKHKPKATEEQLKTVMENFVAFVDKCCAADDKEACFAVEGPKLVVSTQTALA
binder,measurement,setting,value
ACYNLYGWTCGGG [SEQ ID NO 1],binding result,[1],no binding
"BLA (enzyme, also called pCB04; pCB04 (WT)) TPVSEKQLAEVVANTITPLMKAQSVPGMAVAVIYQGKPHYYTFGKADIAANKPVTPQTLFELGSISKTFTGVLGGDAIARGEISLDDAVTRYWPQLTGKQWQGIRMLDLATYTAGGLPLQVPDEVTDNASLLRFYQNWQPQWKPGTTRLYANASIGLFGALAVKPSGMPYEQAMTTRVLKPLKLDHTWINVPKAEEAHYAWGYRDGKAVRVSPGMLDAQAYGVKTNVQDMANWVMANMAPENVADASLKQGIALAQSRYWRIGSMYQGLGWEMLNWPVEANTVVEGSDSKVALAPLPVAEVNPPAPPVKASWVHKTGSTGGFGSYVAFIPEKQIGIVMLANTSYPNPARVEAAYHILEALQHHHHHH",binding result,[2],no binding (tested: about 40 µM)
"ACYNLYGWTCGGG (cysteine pairing not given here; also: biotinylated, site not given here, Synthetic peptide (FMOC, SynPep)) [biotinylated peptide CK37281]",Kd,[3],1.92 µM
same,koff,[3],0.0122 s⁻¹
same,kon,[3],2840 M⁻¹ s⁻¹
ACNLWPHFWCGGG [SEQ ID NO 3],binding result,[1],no binding
"BBI-VEGF1 (designed binder, also called anti-VEGF BBI) DDESSKPCCDQCACYNLYGWTCRCSDMRLNSCHSACKSCICALSYPAQCFCVDITDFCYEPCKPSEDDKEN",binding result,[4],binds
"ACNLWPHFWCGGG (Probably cyclised by a Cys2-Cys10 disulfide, since it comes from the C7C constrained library. The patent does not say this for the synthetic peptide., Synthetic peptide from the phage panning) [CK37283]",Kd,[5],4.9 µM
same,koff,[5],0.318 s⁻¹
same,kon,[5],12400 M⁻¹ s⁻¹
ACTLWPSYWCGGG [SEQ ID NO 7],binding result,[1],no binding
ACSLWPAFWCGGG [SEQ ID NO 4],binding result,[1],no binding
ACTLWPTFWCGGG [SEQ ID NO 2],binding result,[1],no binding
